Experimental data as given in the supplement of paper PMC9170038.

Experiments:
MS2 coat protein [1] = assay: apparent KD of MS2 coat protein; higher = weaker reporter binding; details: Eterna round: R107
Procedure: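 RNA-MaP round R107: designed RNA switches with theophylline, tryptophan, arginine or FMN aptamers are transcribed on-chip within common flanks. They are titrated with SNAP-549-labelled MS2 coat protein in RNA-MaP buffer (100 mM Tris pH 7.5, 80 mM KCl, 4 mM MgCl2), without ligand or with the indicated ligand. Median apparent KD per design.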

MS2 coat protein [2] = assay: apparent KD of MS2 coat protein; designed switch direction (-1 OFF switch, 1 ON switch): 1; higher = weaker reporter binding
Summary of the method: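 Designed RNA switches with common flanks were made on Illumina chips by stalled E. coli RNA polymerase. Titration with SNAP-549-labelled MS2 coat protein doubled from 0.7 or 1.5 nM up to 3 µM. Apparent KD is each design's median over clusters after curve-fitting normalised fluorescence.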

[3] = input ligand: theophylline 20 uM
[4] = input ligand: tryptophan 2.4 mM
[5] = input ligand: theophylline 2 mM

Sequence	apparent KD of MS2 coat protein (MS2 coat protein [1]; input ligand: arginine 13.2 mM)	apparent KD of MS2 coat protein (MS2 coat protein [1]; [3])	apparent KD of MS2 coat protein (MS2 coat protein [1]; [4])	apparent KD of MS2 coat protein (MS2 coat protein [1]; input ligand: none)	apparent KD of MS2 coat protein (MS2 coat protein [1]; [5])	further results
UGACAUUGCUCAGAUACCAGACAUGAGGAUCACCCAUGUGCCAACGUACAAAUAAUAAAUGUCCCUUGGCAGCUGAGCAAUGUCU [TheoBX 15 #MS2Left #Theo2]	16.2 nM	19.9 nM	11.4 nM	–	–	–
ACAUGAGGAUCACCCAUGUUCCUCGCCGAUACCAGUGAAGAAGAACGCCCUUGGCAGCGGAAAGAAUAUUUUGGAGAUGAGAUAU [6.V]	70.5 nM	272 nM	220 nM	–	–	–
CGACGAUACCUGGAUACCAGCGACAUGAGGAUCACCCAUGUAUGUGGAUCAGCCAUGAUAUGCCCUUGGCAGCCACCAAAGUCGG [IIIMULLIN]	17 nM	24.1 nM	14.3 nM	–	–	–
UCACAUGAGGAUCACCCAUGUAAAGUUGAAGGAGCGAUCAUUAGGUCAGGUAGGUCGCAACACAUGAGGAUCACCCAUGUUGUCC [DOUBLE!!! :-D]	25.7 nM	49.9 nM	38.3 nM	40.8 nM	47.1 nM	–
CUUGUGGGCGGAAGGAGCGCGAUUACAUAACAUGAGGAUCACCCAUGUAAGAAAUUAUUCAUGCAGGUAGGUCGCCGUUCGUGGG [Same State Arginine B GF9]	24.8 nM	30.9 nM	25.2 nM	23.8 nM	24.1 nM	–
GGAAUAACGAUUGAUACCAGCAUGUUAACAUGAGGAUCACCCAUGUUAAGGAUAACAUAAUGCCCUUGGCAGCAACGGAAACCCG [#23Same State - Theophylline B]	16.3 nM	19.2 nM	17.8 nM	–	–	–
UACAGUACAACAGAUACCAGACAGUACUCUAGAUUGCAACAUGAGGAUCACCCAUGUAUAGUCCCUUGGCAGCUGUAAUGGGUGA [Theo B SS s1]	142 nM	195 nM	77.2 nM	–	–	–
CUCCCGUGGUCGGCCGCCACUGGAGGCCUUGCGCGACAUGAGGAUCACCCAUGUGUGCCCGGCGUCAGGACCGGGAUCGCGUGAG [#1 Same State - Tryptophan B Attempt #12 (HarryS)]	17.2 nM	18.7 nM	13.8 nM	16.1 nM	19.7 nM	–
CUGCCAUGCAGAGAUACCAGUGAGCUCAAAACAUGAGGAUCACCCAUGUAAAUUGCCGAUCACCCUUGGCAGCUCUGCAUGGCAG [}=%#^]	13.7 nM	10.3 nM	9.55 nM	–	–	–
GGUCCCGUCGGAAGGAGCGACAUGAGGAUCACCCAUGUCUCCCGUUAUGGGAGUUCUUUAGGUCAGGUAGGUCGCCGGCGGGAGC [#1 Exclusion - Arginine B Attempt #15 (Inspired by Omei)]	52.4 nM	123 nM	74 nM	94.5 nM	141 nM	–
AUGGUAGGACAGCACAUAUAAGCUUGUGAUACCAGCUAGAAAACUAGCCCUUGGCAGCACAUUACAUGAGGAUCACCCAUGUCCC [EThA NP+V+V2 #1]	44.1 nM	68.6 nM	50 nM	–	–	–
GGGUAAGAUCCGGAUACCAGCGAACAUGAGGAUCACCCAUGUGACCUAAGAUAGGCUAAACGCCCUUGGCAGCCGAAAUAGCGUU [Same State Theophylline B GF 5]	24.9 nM	43 nM	39.5 nM	36.4 nM	38.2 nM	–
UUAAAACAUGAGGAUCACCCAUGUCAACAAAGUCGAGGAUAUGGGCAAAUAAAAUAAGAACCAGAAGGCGAAUAAC [salish99_SS1_r3_007] (puzzle: Same State 1)	–	–	–	–	–	apparent KD of MS2 coat protein (MS2 coat protein [2]; Eterna round: R95, input ligand: FMN 200 uM): 43.9 nM; apparent KD of MS2 coat protein (MS2 coat protein [2]; Eterna round: R95, input ligand: microRNA oligo, concentration not stated): 422 nM; apparent KD of MS2 coat protein (MS2 coat protein [2]; Eterna round: R95, input ligand: none): 390 nM
AAACGGCCGAACGGAGGGCCACAUGAGGAUCACCCAUGUACAUAGGAUAUCACACCAACGAGGCGUGAGAAGGGUGAUUAAAAC [Teisedbe] (Eterna round: R96, puzzle: Same State NG 3)	–	–	–	–	–	apparent KD of MS2 coat protein (MS2 coat protein [2]; input ligand: FMN 200 uM): 176 nM; apparent KD of MS2 coat protein (MS2 coat protein [2]; input ligand: microRNA oligo, concentration not stated): 52.1 nM; apparent KD of MS2 coat protein (MS2 coat protein [2]; input ligand: none): 1110 nM
